How the values were obtained:
293T cells = assay: G1/S ratio by flow cytometry, PHLPP2 expression; format: cell-based; settings: high serum (10% FBS), 48 hrs
Protocol: (§1) Apoptotic assays were performed as described above. To determine G1/S ratios, cells were co-transfected with GFP and HA-PHLPP2 and incubated under high serum (10% FBS) conditions for 48 hrs and cells were gated based on GFP expression as described above. For BrdU incorporation assays, cells were transfected with 100 nM siRNA (si-1) and incubated for 48 hrs prior to performing assay following manufacturers protocol (Oncogene Research Products).

H157 cells [1] = assay: G1/S ratio by flow cytometry, PHLPP2 expression; format: cell-based; settings: high serum (10% FBS), 48 hrs
Protocol: as §1

Akt [2] = biological target: T1, Akt (Homo sapiens, UniProt P31749); assay: dephosphorylation assay with immunoprecipitated full-length HA-PHLPP2 and pure Akt; format: biochemical
T1 construct: 6His; made in house; host or cells: Akt1: baculovirus-infected Sf21 cells; HA-PHLPP2: transfected 293T cells, immunoprecipitated with HA antibody
Protocol: A GST-fusion protein of PHLPP-1α-PP2C was expressed in BL21 (DE3) and purified using glutathione-Sepharose. The GST-PP2C proteins were eluted from the beads in PBS containing 10 mM glutathione and 1 mM DTT, and dialyzed against 50 mM Tris (pH 7.4) and 1 mM DTT. His-tagged Akt was expressed and purified from baculovirus-infected Sf21 cells. Briefly, Sf21 cells were maintained in SF-900 II media (Invitrogen) and infected with baculovirus encoding His-Akt for 3 days. To obtain maximally phosphorylated Akt as substrate, the infected cells were treated with 10% FBS and calyculin A (100 nM) for 15 minutes prior to lysis. The infected cells were lysed in PBS containing 1% Triton X-100 and 10 mM imidazole, and His-Akt proteins were purified using Ni-NTA beads (Qiagen). The dephosphorylation reactions were carried out in a reaction buffer containing 50 mM Tris (pH 7.4), 1 mM DTT and 5 mM MnCl2 at 30° C. for 0-30 minutes.
GST-PP2C was expressed in BL21 bacterial cells; phosphatase assays were performed using the purified GST-PP2C construct conjugated to glutathione-sepharose and pure Akt as a substrate as described above. The activity of full length HA-PHLPP2 was assessed by expressing and immunoprecipitating PHLPP2 from 293T or H157 cell lysates. Cells were lysed in Buffer 2 (20 mM HEPES, pH 7.4, 1% Triton X-100, 1 mM DTT, 200 mM benzamidine, […] leupeptin, and 1 mM PMSF). […]

MEK 1/2 or ERK 1/2 = assay: MAPK signaling pathway on PHLPP2 expression (Western blot); format: cell-based; settings: untreated cells
Protocol: (§2) ZR-75-1 cell lines were maintained in RPMI 1640 (Cellgro), and all other cell lines were maintained in DMEM (Celigro); both media were supplemented with 10% FBS and 1% penicillin/streptomycin. Cells were maintained at 37° C. in 5% CO2. Transient transfections and siRNA experiments were performed as previously described (6), except for ZR-75-1 cells, which were transfected using FuGENE reagent (Roche). For immunoblotting, transfected cells were lysed in Buffer 1 (50 mM Na2HPO4, pH 7.5, 1 mM sodium pyrophosphate, 20 mM NaF, 2 mM EDTA, 2 mM EGTA, 1% SDS, 1 mM DTT, 200 mM benzamidine, […] leupeptin, and 1 mM PMSF) and sonicated for 5 seconds. Lysates containing equal protein were analyzed on SDS-PAGE gels, and individual blots were probed using each antibody. Densitometric analysis was performed with the NIH Image analysis software (version 1.63).

MDA-MB-231 cells = assay: apoptosis assay, sub-2N DNA by flow cytometry; format: cell-based; settings: from 2.9+0.9 without PHLPP2
Protocol: (§3) Apoptosis assays were performed as described previously (Brognard et al., 2001). Briefly, cells were transfected with different PHLPP expression constructs or siRNAs. In the case of gating for transfected cells, a GFP expression construct was co-transfected into the cells. Approximately 24 hours post-transfection, the cells were switched to low serum medium (DMEM plus 0.1% FBS) and allowed to grow for an additional 48 hours. For LY294002 (25 μM) treatment, the drug was added at the time when the cells were switched into the low serum medium. The cells were collected and stained with propidium iodide (25 μg/ml). Apoptotic cells were defined as sub-2N DNA containing cells. Quantification of apoptosis was obtained using flow cytometry analysis with a Becton Dickinson FACSort.
as §1

Bt-474 cells = assay: apoptosis assay, sub-2N DNA by flow cytometry; format: cell-based; settings: from 2.0+0.2 without PHLPP2
Protocol: as §3, §1

H157 cells [3] = assay: apoptosis assay, sub-2N DNA by flow cytometry; format: cell-based; settings: serum deprivation; vector-transfected cells 3.1±0.1%
Protocol: as §3, §1

Akt [4] = assay: Akt phosphorylation in cells overexpressing HA-PHLPP2 (Western blot); format: cell-based
Protocol: as §2

PKC, p90RSK, or p70S6K = assay: phosphorylation of the hydrophobic motif in other AGC family kinases on PHLPP2 expression (Western blot); format: cell-based; settings: 293T and H157 cells
Protocol: as §2

Akt [5] = assay: in vitro kinase assay of Akt immunoprecipitated from 293T cells overexpressing PHLPP2; format: cell-based
Protocol: H157 cells transfected with vector or HA-PHLPP were lysed in buffer A. The detergent-solubilized cell lysates were incubated with an anti-Akt monoclonal antibody (5G3) and Ultra-link protein A/G beads (Pierce) at 4° C. overnight. Beads were washed three times in buffer A and twice in buffer B (25 mM Tris, pH 7.4, 10 mM MgCl2 and 1 mM DTT). In vitro kinase assays were carried out by incubating immunoprecipitated Akt in buffer containing 25 mM Tris, pH 7.4, 10 mM MgCl2 and 1 mM DTT, 200 μM ATP, 6 μM Crosstide (Upstate Biotechnology) and ^32Pγ-ATP at 30° C. for 30 minutes. Each reaction was performed in duplicate. The reactions were spotted onto P81 filter paper (Whatman), and radioactivity incorporated into the peptide was measured using a scintillation counter.
Akt was immunoprecipitated from cell lysates using Akt agarose (Upstate Biotechnologies) and kinase reactions were performed using an Akt kinase assay kit (Cell Signaling) as described previously in Example 5.

T1 sequence (P31749 whole entry): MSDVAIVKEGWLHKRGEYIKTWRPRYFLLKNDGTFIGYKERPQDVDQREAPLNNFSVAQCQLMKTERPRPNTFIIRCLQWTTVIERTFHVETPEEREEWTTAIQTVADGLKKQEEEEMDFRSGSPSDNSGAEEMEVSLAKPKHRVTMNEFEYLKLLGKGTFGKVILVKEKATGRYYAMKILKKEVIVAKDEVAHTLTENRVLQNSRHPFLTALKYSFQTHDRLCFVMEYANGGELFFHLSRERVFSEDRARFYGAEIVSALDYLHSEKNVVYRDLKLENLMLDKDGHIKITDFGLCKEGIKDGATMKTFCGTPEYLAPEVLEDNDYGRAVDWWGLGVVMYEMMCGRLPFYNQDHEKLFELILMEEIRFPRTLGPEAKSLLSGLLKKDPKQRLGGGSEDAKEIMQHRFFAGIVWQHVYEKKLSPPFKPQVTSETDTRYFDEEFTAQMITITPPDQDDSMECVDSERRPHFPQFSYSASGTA

B1: HA-PHLPP2: HA-tagged full length human PHLPP2 expressed from pcDNA3HA vector; PHLPP2 protein is SEQ ID NO: 4 (protein, listed as Homo sapiens)
chain: MKRNGSRNCLNRRSRFGSRERDWLREDVKRGCVYLYGADTTTATTTTTTSSSSSSSSSSSDLHLVLCTVETPASEICAGEGRESLYLQLHGDLVRRLEPTERPLQIVYDYLSRLGFDDPVRIQEEATNPDLGCMIRFYGEKPCHMDRLDRILLSGIYNVRKGKTQLHKWAERLVVLCGTCLIVSSVKDCQTGKMHILPLVGGKIEEVKRRQYSLAFSSAGAQAQTYHVSFETLAEYQRWQRQASKVVSQRISTVDLSCYSLEEVPEHLFYSQDITYLNLRHNFMQLERPGGLDTLYKFSQLKGLNLSHNKLGLFPILLCEISTLTELNLSCNGFHDLPSQIGNLLNLQTLCLDGNFLTTLPEELGNLQQLSSLGISFNNFSQIPEVYEKLTMLDRVVMAGNCLEVLNLGVLNRMNHIKHVDLRMNHLKTMVIENLEGNKHITHVDLRDNRLTDLDLSSLCSLEQLHCGRNQLRELTLSGFSLRTLYASSNRLTAVNVYPVPSLLTFLDLSRNLLECVPDWACEAKKIEVLDVSYNLLTEVPVRILSSLSLRKLMLGHNHVQNLPTLVEHIPLEVLDLQHNALTRLPDTLFSKALNLRYLNASANSLESLPSACTGEESLSMLQLLYLTNNLLTDQCIPVLVGHLHLRILHLANNQLQTFPASKLNKLEQLEELNLSGNKLKTIPTTIANCKRLHTLVAHSNNISIFPEILQLPQIQFVDLSCNDLTEILIPEALPATLQDLDLTGNTNLVLEHKTLDIFSHITTLKIDQKPLPTTDSTVTSTFWSHGLAEMAGQRNKLCVSALAMDSFAEGVGAVYGMFDGDRNEELPRLLQCTMADVLLEEVQQSTNDTVFMANTFLVSHRKLGMAGQKLGSSALLCYIRPDTADPASSFSLTVANVGTCQAVLCRGGKPVPLSKVFSLEQDPEEAQRVKDQKAIITEDNKVNGVTCCTRMLGCTYLYPWILPKPHISSTPLTIQDELLILGNKALWEHLSYTEAVNAVRHVQDPLAAAKKLCTLAQSYGCQDNVGAMVVYLNIGEEGCTCEMNGLTLPGPVGFASTTTIKDAPKPATPSSSSGIASEFSSEMSTSEVSSEVGSTASDEHNAGGLDTALLPRPERRCSLHPTPTSGLFQRQPSSATFSSNQSDNGLDSDDDQPVEGVITNGSKVEVEVDIHCCRGRDLENSPPLIESSPTLCSEEHARGSCFGIRRQNSVNSGMLLPMSKDRMELQKSPSTSCLYGKKLSNGSIVPLEDSLNLIEVATEVPKRKTGYFAAPTQMEPEDQFVVPHDLEEEVKEQMKQHQDSRLEPEPHEEDRTEPPEEFDTAL
modifications: HA tag
increase in the G1/S ratio (293T cells): approximately 3 fold | increase in the G1/S ratio (H157 cells [1]): approximately 2 fold | dephosphorylation of Ser 473 (Akt [2]): 60+4% | effect on Thr 308 phosphorylation (Akt [2]): no significant effect | phosphorylation of MEK 1/2 or ERK 1/2 (MEK 1/2 or ERK 1/2): did not alter | apoptosis (sub-2N-DNA content) (MDA-MB-231 cells): 11.5+3.6 relative units | apoptosis (sub-2N-DNA content) (Bt-474 cells): 15.8+0.6 relative units | relative sub-2N DNA (apoptosis) (H157 cells [3]): 28±5% | decrease in phosphorylation at Ser 473 (Akt [4]; Bt-474 cell line): approximately 80% | decrease in phosphorylation at Ser 473 (Akt [4]; MDA-MB-231 cell line): ~70% | effects on the phosphorylation of Thr 308 (Akt [4]; overexpression in 293T and H157 cells): minimal effects | reduction in phosphorylation at Ser 473 (Akt [4]; overexpression in 293T cells): 76±3% | reduction in phosphorylation at Ser 473 (Akt [4]; overexpression in H157 cells): 72+8% | effect on the phosphorylation of the hydrophobic motif in PKC, p90RSK, or p70S6K (PKC, p90RSK, or p70S6K): no significant effect | reduction in Ser 473 phosphorylation of immunoprecipitated Akt (Akt [5]; 293T cells overexpressing PHLPP2, compared to vector-transfected cells): 70% | reduction in substrate phosphorylation (GSK-3 fusion protein) (Akt [5]; Akt from 293T cells overexpressing PHLPP2): 80%

Source: patent US20080108569A1, “Compositions and Methods for Treating Diseases Associated With Phlpp” (The Regents of the University of California, priority 2005, published 2008)
